According to US11702475B2, “Cysteine engineered fibronectin type III domain binding molecules” (Janssen Biotech, Inc., priority 2013, dated 2023):

Key:
[1] = target: EGFR (Homo sapiens, UniProt P00533); experiment: Inhibition of EGF-stimulated EGFR phosphorylation in A431 cells (phospho-EGFR assay); assay type: cell-based; settings: 50 ng/mL EGF, EGFR Tyr1173
Experimental: Purified EGFR-binding FN3 domains were tested for their ability to inhibit EGF-stimulated phosphorylation of EGFR in A431 cells at a single concentration. EGFR phosphorylation was monitored using the EGFR phospho(Tyr1173) kit (Meso Scale Discovery). Cells were plated at 20,000/well in clear 96-well tissue culture-treated plates (Nunc) in 100 μL/well of RPMI medium (Gibco) containing GlutaMAX™ with 10% fetal bovine serum (FBS) (Gibco) and allowed to attach overnight at 37° C. in a humidified 5% CO2 atmosphere. Culture medium was removed completely and cells were starved overnight in 100 μL/well of medium containing no FBS at 37° C. in a humidified 5% CO2 atmosphere. […] Signals were detected by addition of 150 μL/well of Read Buffer (Meso Scale Discovery) and reading on a SECTOR® Imager 6000 instrument (Meso Scale Discovery) using manufacturer-installed assay-specific default settings. Percent inhibition of the EGF-stimulated positive control signal was calculated for each EGFR-binding FN3 domain.
Data were plotted as electrochemiluminescence signal against the logarithm of the FN3 domain molar concentration and IC50 values were determined by fitting data to a sigmoidal dose response with variable slope using GraphPad Prism 4 (GraphPad Software). […]

[2] = target: T1, EGFR on A431 cells (Homo sapiens, UniProt P00533); experiment: A431 cell binding assay; settings: 1 hour room temperature
T1 construct: A431 cells (American Type Culture Collection, cat. #CRL-1555) over-express EGFR; host or cells: A431
Experimental: To assess the ability of different FN3 domains to bind EGFR in a more physiological context, their ability to bind A431 cells was measured. A431 cells (American Type Culture Collection, cat. #CRL-1555) over-express EGFR with ˜2×10^6 receptors per cell. Cells were plated at 5,000/well in opaque black 96-well plates and allowed to attach overnight at 37° C., in a humidified 5% CO2 atmosphere. FN3 domain-expressing bacterial lysates were diluted 1,000-fold into FACS stain buffer (Becton Dickinson) and incubated for 1 hour at room temperature in triplicate plates. Lysates were removed and cells were washed 3 times with 150 μL/well of FACS stain buffer. Cells were incubated with 50 μL/well of anti-penta His-Alexa488 antibody conjugate (Qiagen) diluted 1:100 in FACS stain buffer for 20 minutes at room temperature. Cells were washed 3 times with 150 μL/well of FACS stain buffer, after which wells were filled with 100 μL of FACS stain buffer and read for fluorescence at 488 nm using an Acumen eX3 reader. […]
A431 cells were plated at 5,000/well in opaque black 96-well plates and allowed to attach overnight at 37° C., in a humidified 5% CO2 atmosphere. […] Cells were washed 3 times with 150 μL/well of FACS stain buffer, after which wells were filled with 100 μL of FACS stain buffer and read for fluorescence at 488 nm using an Acumen eX3 reader. […]

B1: P54AR4-47: EGFR-binding FN3 domain, SEQ ID NO: 20 (protein)
chain: LPAPKNLVVSEVTEDSLRLSWGYNGDHFDSFLIQYQESEKVGEAINLTVPGSERSYDLTGLKPGTEYTVSIYGVHNVYKDTNMRGLPLSAEFTT
modifications: EGFR binding FN3 domain
IC50 [1]: 295 nM
EC50 [2]: 8.6 nM
